Laboratory results as given in patent publication US20240417436A1 (BRIGHT PEAK THERAPEUTICS, published 2024).
Blank lines part the entries; values can stand above or below the binder they belong to. Primed or numbered codes have the meaning given here. [ ]: non-standard residue; d: D form. Ygp″ = O-(PEG8-amino)-tyrosine (O-(8x polyethylene glycol-amino)-tyrosine); Yn3″ = O-(PEG9-azido)-tyrosine (O-(9x polyethylene glycol-azido)-tyrosine); Ygp = O-(8x polyethylene glycol-amino)-tyrosine; Yn3 = O-(9x polyethylene glycol-azido)-tyrosine; hSer = N[C@@H](CCO)C(=O)O; Nle = CCCC[C@H](N)C(=O)O

Target: T1, IL-2 receptor βγ complex on pan T cells (human, UniProt P14784 27-551; P31785 23-369)
T1 sequence (looked up) 1: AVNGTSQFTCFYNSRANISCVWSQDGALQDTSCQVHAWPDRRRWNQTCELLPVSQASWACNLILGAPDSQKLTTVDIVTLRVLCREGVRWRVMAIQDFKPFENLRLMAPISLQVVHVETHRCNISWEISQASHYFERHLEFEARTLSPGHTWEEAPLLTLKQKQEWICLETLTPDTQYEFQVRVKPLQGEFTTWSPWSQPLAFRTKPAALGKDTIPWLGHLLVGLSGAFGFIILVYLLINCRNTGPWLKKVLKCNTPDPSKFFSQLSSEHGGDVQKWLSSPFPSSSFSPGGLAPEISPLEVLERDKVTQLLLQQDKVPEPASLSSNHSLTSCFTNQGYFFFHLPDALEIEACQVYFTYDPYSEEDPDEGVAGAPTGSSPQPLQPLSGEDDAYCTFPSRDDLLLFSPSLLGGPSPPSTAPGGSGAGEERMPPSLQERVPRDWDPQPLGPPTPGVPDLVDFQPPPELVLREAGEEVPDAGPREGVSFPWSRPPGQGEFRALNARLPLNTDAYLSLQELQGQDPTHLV
T1 sequence (looked up) 2: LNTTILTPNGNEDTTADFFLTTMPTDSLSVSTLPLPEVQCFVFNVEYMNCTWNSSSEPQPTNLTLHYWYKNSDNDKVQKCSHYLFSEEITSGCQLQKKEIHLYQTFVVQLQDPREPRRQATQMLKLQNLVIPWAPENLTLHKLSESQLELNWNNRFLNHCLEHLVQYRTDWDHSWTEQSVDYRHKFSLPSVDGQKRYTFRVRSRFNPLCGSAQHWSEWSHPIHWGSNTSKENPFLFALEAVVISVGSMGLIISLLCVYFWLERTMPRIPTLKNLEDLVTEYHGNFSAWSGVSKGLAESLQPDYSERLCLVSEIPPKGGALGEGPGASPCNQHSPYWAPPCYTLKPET
Experiment: cell-based or functional assay

B1: CMP-126, MMP2 cleaved (ligand)
chain: APTSSSTKKTQLQLEHLLLDLQKILNGINNYKNPKLTR[Nle]L[hSer][Yn3″]KF[Ygp″][Nle]PKKATELKHLQCLEEELKPLEEVL[hSer]LAQSKNFHLRPRDLISNINVIVLELKGSETTF[hSer]CEYADETATIVEFLNRWITFSQSIISTLT
modifications: ends and bridges not checked; also: Lys23 side chain attached to cleavable peptide, MMP2-cleaved, remnant stays attached, cut site not given here
Average EC50, pSTAT5 assay in pan T cells, MMP2 cleaved molecule: 2.03 nM

B2: CMP-123, MMP2 cleaved (ligand)
chain: APTSSSTKKTQLQLEHLLLDLQKILNGINNYKNPKLTR[Nle]L[hSer][Yn3″]KF[Ygp″][Nle]PKKATELKHLQCLEEELKPLEEVL[hSer]LAQSKNFHLRPRDLISNINVIVLELKGSETTF[hSer]CEYADETATIVEFLNRWITFSQSIISTLT
modifications: ends and bridges not checked; also: Lys23 side chain attached via PEG9 to cleavable peptide, MMP2-cleaved, remnant stays attached, cut site not given here
Average EC50, pSTAT5 assay in pan T cells, MMP2 cleaved molecule: 2.93 nM

B7: CMP-122, MMP2 cleaved (ligand)
chain: APTSSSTKKTQLQLEHLLLDLQKILNGINNYKNPKLTR[Nle]L[hSer][Yn3″]KF[Ygp″][Nle]PKKATELKHLQCLEEELKPLEEVL[hSer]LAQSKNFHLRPRDLISNINVIVLELKGSETTF[hSer]CEYADETATIVEFLNRWITFSQSIISTLT
modifications: ends and bridges not checked; also: Lys23 side chain attached via PEG9 to cleavable peptide, MMP2-cleaved, remnant stays attached, cut site not given here
Average EC50, pSTAT5 assay in pan T cells, MMP2 cleaved molecule: 3.55 nM

B8: CMP-120, MMP2 cleaved (ligand)
chain: APTSSSTKKTQLQLEHLLLDLQKILNGINNYKNPKLTR[Nle]L[hSer][Yn3″]KF[Ygp″][Nle]PKKATELKHLQCLEEELKPLEEVL[hSer]LAQSKNFHLRPRDLISNINVIVLELKGSETTF[hSer]CEYADETATIVEFLNRWITFSQSIISTLT
modifications: ends and bridges not checked; also: Lys23 side chain attached to cleavable peptide, MMP2-cleaved, remnant stays attached, cut site not given here
Average EC50, pSTAT5 assay in pan T cells, MMP2 cleaved molecule: 0.7 nM

B10: CMP-125, MMP2 cleaved (ligand)
chain: APTSSSTKKTQLQLEHLLLDLQKILNGINNYKNPKLTR[Nle]L[hSer][Yn3″]KF[Ygp″][Nle]PKKATELKHLQCLEEELKPLEEVL[hSer]LAQSKNFHLRPRDLISNINVIVLELKGSETTF[hSer]CEYADETATIVEFLNRWITFSQSIISTLT
modifications: ends and bridges not checked; also: cleavable moiety on Lys23 side chain, not given here
Average EC50, pSTAT5 assay in pan T cells, MMP2 cleaved molecule: 1.73 nM

B14: CMP-143, MMP2 cleaved (ligand)
chain: APTSSSTKKTQLQLEHLLLDLQKILNGINNYKNPKLTR[Nle]L[hSer][Yn3]KF[Ygp][Nle]PKKATELKHLQCLEEELKPLEEVL[hSer]LAQSKNFHLRPRDLISNINVIVLELKGSETTF[hSer]CEYADETATIVEFLNRWITFSQSIISTLT
modifications: not fully specified (residue 23); ends and bridges not checked; also: MMP2-cut remnant of cleavable moiety on Lys23 side chain, not given here
Average EC50, pSTAT5 assay in pan T cells, MMP2 cleaved molecule: 1.99 nM

The next lines start with the values.

Average EC50, pSTAT5 assay in pan T cells, MMP2 cleaved molecule: 1.4 nM
B3: CMP-129, MMP2 cleaved (ligand)
chain: APTSSSTKKTQLQLEHLLLDLQKILNGINNYKNPKLTR[Nle]L[hSer][Yn3″]KF[Ygp″][Nle]PKKATELKHLQCLEEELKPLEEVL[hSer]LAQSKNFHLRPRDLISNINVIVLELKGSETTF[hSer]CEYADETATIVEFLNRWITFSQSIISTLT
modifications: ends and bridges not checked; also: Lys23 side chain attached via PEG9 to cleavable peptide, MMP2-cleaved, remnant stays attached, cut site not given here

Average EC50, pSTAT5 assay in pan T cells, MMP2 cleaved molecule: 0.56 nM
B4: CMP-142, MMP2 cleaved (ligand)
chain: APTSSSTKKTQLQLEHLLLDLQKILNGINNYKNPKLTR[Nle]L[hSer][Yn3]KF[Ygp][Nle]PKKATELKHLQCLEEELKPLEEVL[hSer]LAQSKNFHLRPRDLISNINVIVLELKGSETTF[hSer]CEYADETATIVEFLNRWITFSQSIISTLT
modifications: not fully specified (residue 23); ends and bridges not checked; also: MMP2-cut remnant of cleavable moiety on Lys23 side chain, not given here

Average EC50, pSTAT5 assay in pan T cells, MMP2 cleaved molecule: 3.68 nM
B5: CMP-128, MMP2 cleaved (ligand)
chain: APTSSSTKKTQLQLEHLLLDLQKILNGINNYKNPKLTR[Nle]L[hSer][Yn3″]KF[Ygp″][Nle]PKKATELKHLQCLEEELKPLEEVL[hSer]LAQSKNFHLRPRDLISNINVIVLELKGSETTF[hSer]CEYADETATIVEFLNRWITFSQSIISTLT
modifications: ends and bridges not checked; also: Lys23 side chain attached via PEG9 to cleavable peptide, MMP2-cleaved, remnant stays attached, cut site not given here

Average EC50, pSTAT5 assay in pan T cells, MMP2 cleaved molecule: 0.63 nM
B6: CMP-119, MMP2 cleaved (ligand)
chain: APTSSSTKKTQLQLEHLLLDLQKILNGINNYKNPKLTR[Nle]L[hSer][Yn3″]KF[Ygp″][Nle]PKKATELKHLQCLEEELKPLEEVL[hSer]LAQSKNFHLRPRDLISNINVIVLELKGSETTF[hSer]CEYADETATIVEFLNRWITFSQSIISTLT
modifications: ends and bridges not checked; also: Lys23 side chain attached to cleavable peptide, MMP2-cleaved, remnant stays attached, cut site not given here

Average EC50, pSTAT5 assay in pan T cells, MMP2 cleaved molecule: 0.9 nM
B9: CMP-118, MMP2 cleaved (ligand)
chain: APTSSSTKKTQLQLEHLLLDLQKILNGINNYKNPKLTR[Nle]L[hSer][Yn3″]KF[Ygp″][Nle]PKKATELKHLQCLEEELKPLEEVL[hSer]LAQSKNFHLRPRDLISNINVIVLELKGSETTF[hSer]CEYADETATIVEFLNRWITFSQSIISTLT
modifications: ends and bridges not checked; also: Lys23 side chain attached to cleavable peptide, MMP2-cleaved, remnant stays attached, cut site not given here

Average EC50, pSTAT5 assay in pan T cells, MMP2 cleaved molecule: 2.43 nM
B11: CMP-127, MMP2 cleaved (ligand)
chain: APTSSSTKKTQLQLEHLLLDLQKILNGINNYKNPKLTR[Nle]L[hSer][Yn3″]KF[Ygp″][Nle]PKKATELKHLQCLEEELKPLEEVL[hSer]LAQSKNFHLRPRDLISNINVIVLELKGSETTF[hSer]CEYADETATIVEFLNRWITFSQSIISTLT
modifications: ends and bridges not checked; also: Lys23 side chain attached via PEG9 to cleavable peptide, MMP2-cleaved, remnant stays attached, cut site not given here

Average EC50, pSTAT5 assay in pan T cells, MMP2 cleaved molecule: 0.8 nM
B12: CMP-141, MMP2 cleaved (ligand)
chain: APTSSSTKKTQLQLEHLLLDLQKILNGINNYKNPKLTR[Nle]L[hSer][Yn3]KF[Ygp][Nle]PKKATELKHLQCLEEELKPLEEVL[hSer]LAQSKNFHLRPRDLISNINVIVLELKGSETTF[hSer]CEYADETATIVEFLNRWITFSQSIISTLT
modifications: not fully specified (residue 23); ends and bridges not checked; also: MMP2-cleaved, remnant of moiety on Lys23 side chain, not given here

Average EC50, pSTAT5 assay in pan T cells, MMP2 cleaved molecule: 2.07 nM
B13: CMP-124, MMP2 cleaved (ligand)
chain: APTSSSTKKTQLQLEHLLLDLQKILNGINNYKNPKLTR[Nle]L[hSer][Yn3″]KF[Ygp″][Nle]PKKATELKHLQCLEEELKPLEEVL[hSer]LAQSKNFHLRPRDLISNINVIVLELKGSETTF[hSer]CEYADETATIVEFLNRWITFSQSIISTLT
modifications: ends and bridges not checked; also: Lys23 side chain attached to cleavable peptide, MMP2-cleaved, remnant stays attached, cut site not given here
